In paper PMC9023281:

Molecular target: Polθ helicase domain (amino acids 1–894), O75417
Assay: SEC; calibrated size exclusion chromatography of purified Polθ-h
Conditions: remark: other sources report otherwise

B1: Polθ helicase domain (amino acids 1–894), O75417 1-894 (domain or fragment)
chain: MNLLRRSGKRRRSESGSDSFSGSGGDSSASPQFLSGSVLSPPPGLGRCLKAAAAGECKPTVPDYERDKLLLANWGLPKAVLEKYHSFGVKKMFEWQAECLLLGQVLEGKNLVYSAPTSAGKTLVAELLILKRVLEMRKKALFILPFVSVAKEKKYYLQSLFQEVGIKVDGYMGSTSPSRHFSSLDIAVCTIERANGLINRLIEENKMDLLGMVVVDELHMLGDSHRGYLLELLLTKICYITRKSASCQADLASSLSNAVQIVGMSATLPNLELVASWLNAELYHTDFRPVPLLESVKVGNSIYDSSMKLVREFEPMLQVKGDEDHVVSLCYETICDNHSVLLFCPSKKWCEKLADIIAREFYNLHHQAEGLVKPSECPPVILEQKELLEVMDQLRRLPSGLDSVLQKTVPWGVAFHHAGLTFEERDIIEGAFRQGLIRVLAATSTLSSGVNLPARRVIIRTPIFGGRPLDILTYKQMVGRAGRKGVDTVGESILICKNSEKSKGIALLQGSLKPVRSCLQRREGEEVTGSMIRAILEIIVGGVASTSQDMHTYAACTFLAASMKEGKQGIQRNQESVQLGAIEACVMWLLENEFIQSTEASDGTEGKVYHPTHLGSATLSSSLSPADTLDIFADLQRAMKGFVLENDLHILYLVTPMFEDWTTIDWYRFFCLWEKLPTSMKRVAELVGVEEGFLARCVKGKVVARTERQHRQMAIHKRFFTSLVLLDLISEVPLREINQKYGCNRGQIQSLQQSAAVYAGMITVFSNRLGWHNMELLLSQFQKRLTFGIQRELCDLVRVSLLNAQRARVLYASGFHTVADLARANIVEVEVILKNAVPFKSARKAVDEEEEAVEERRNMRTIWVTGRKGLTEREAAALIVEEARMILQQDLVEM
In the case of B1, the stoichiometry N is reported as 4.
